Target: FITC-labeled BMF peptide (FITC-…)
Assay: fluorescence polarisation

6xHis-tagged LC8 (DYNLL2), sequence (Q96FJ2 whole entry): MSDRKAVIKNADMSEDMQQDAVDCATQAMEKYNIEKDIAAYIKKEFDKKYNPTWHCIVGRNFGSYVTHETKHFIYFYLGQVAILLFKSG

## 6xHis-tagged LC8 (DYNLL2) (from UniProt Q96FJ2 1-89) (natural protein)
  LC8 concentration at 80% saturation of the labeled BMF peptide: 12 µM

Reference: publication doi:10.1101/2023.09.15.557927
